Drawing on a protein production outcome set (Wang et al. 2014), this text covers protein production for 5 sequences.

A short description of the series: label from the status in PepcDB records.

With “MRVLFIGDVFGQPGRRVLQNHLPTIRPQFDFVIVNMENSAGGFGMHRDAARGALEAGAGCLTLGNHAWHHKDIYPMLSEDTYPIVRPLNYADPGTPGVGWRTFDVNGEKLTVVNLLGRVFMEAVDNPFRTMDALLERDDLGTVFVDFHAEATSEKEAMGWHLAGRVAAVIGTHTHVPTADTRILKGGTAYQTDAGFTGPHDSIIGSAIEGPLQRFLTERPHRYGVAEGRAELNGVALHFEGGKATAAERYRFIED”, the protein production entry is “not failed”.

On to “MRVLILGSGVIGTTSAWYLSKAGCEVVVVDRQSGAGLETSYANGGQLSFGYTSPWAAPGVPLKAVRWLFERHAPLSIRPTTDWNQYVWLARMLRHCSAERYAVNKSRMLRLSEYSREALEALSAETGITFEGRRLGTIQLFRTQQQLDGAVRDIELLTQYGIPYEVLSPHQLAKFEPGLADGSVRFVGALRLPHDQTGDCCLFTQRLAALAAKRGVEFRYGCTVQRLEVDGPRVTGAWINGALERADCCVVALGSYSPLLLAPLGLRLPVYPLKGFSLTLPMIDASRAPVSTVLDESYKVAVTRFDERIRVAGMAEVSGYDVSLNPRRRSTLEMVVQDVYPGCGDLGRGEFWTGLRPATPDGTPVIGATPYQGLFLNTGHGTLGWTMSSGSGRYLADLICCRPCEISSEGLDMFRYLVSTIPCPQECAPCVPPTP”, for which the protein production entry is “failed”.

Take “MRVLKKFFSGDNLLERVLILIVGLVASLILVIKSADLFVDNLVDLGSSLGISEVILGVTASAIGTSLPEFGSALIASLSGSTDIGVGCVIGSNIWNIAGILGISSVVAGIIETNADGLKRDFSATLVTGLILLFFMFFGNIGKIAALVMVLTYAVYLWRLIKAQKTYSDENSGKNEREPLDLKKLALTVVGFAGLVIGCRILVYTGVELADIAGIPAMIMGLFTLAIGTSIPELVVTLSSAVKGLHELSIGTVLGSNTFNILVGIGVPALIAPVPVERLSLTFDAPVMILVTVLLVLLIRQGDMKLKRTGGIVLLAVYISYVIMRLFVLA”: the protein production entry was “failed”.

Take “MRVPALKPILLQLHSVAGLVLAAVLVLVALTGAVMSFEDEIRGALDAGRVQLAPHAGSRMPLDALIAKLQAGGDPVASITMPRSAASAAEVRFARKPDHTRPAPLYLDPYTGESLGHPAADAFFATVRKLHRWLLLPGDGNGYGRTITGVAALGLLAMLLTGLVLRWPHRPGSIKVWLKPHWQLRGRGLHRSLHAVIGTWVLLLYLIMTLTGLWWSFDWYKTAATWLLARSPVTMQPPNRAAVTAAPSAAISLDRVWATLVAERGDRFEAARLTLPSGREGTVRVRAWLTDARDGAHDEFRIDGRSGQVLSADIYADKTIGEKVLARVLDIHRGSIFGWPGQLLFMLAAAAMPLFGVTGVLLYLSRRRHQRMQRAARAKVG”: the protein production result is on record as “failed”.

Turning to “MRVTHFFMAAIAVVFVLAGCSTMPKKPDSLTRGDYGYTKEYVSWLIKKEMRENDVTGLSIALVDDQRVVWAQGFGVADEANKVPATPDTIYRVGSISKLFTATAVLQLAEQGKMDIDKPLSTYLPEFSVKSRFPDAGPITPRTLMTHHSGLPSDFLKGMWTNNPEPISNVVNLLKDEYAQYPPNFVFSYSNLGVSLLGNAVERIAGRPYASQIDETVLHPLGMASSSFSTHSDVASRLAKGYRNGKEIGEPQLRDIPAGGLHTNVLDLSRFMEMVFAGGKAGERRILKEETLAEMLSPQNDGVPLDHDFHIGLGWLLTDVGIENAGKVAWHDGATLLYRSQMVILPEQKLGVVVLSNSATAASVVHKVATEALKLAMEAKAGIRQPERSKPVEREADLSPEERQKLAGAYVTPFGTVKVIESGTTLRTEFFGKTFSVVPRNDGRMGLRYRLLGVIPISLGDLDYLGFSTSTVSGHNVLLATAAGKSMLVGEKMEPVLVSEQWQRRVGAYEIANPGDDTMLVDDIRLRYEDGFLRVDYALPLFFDGKLNVSLQPLSDTEAVIRGLGRGMGETIRVVAVNGEEMLQYSGYLLKKKRE”, the protein production result was “failed”.
